The record followed here is publication PMC5988928, “An alkaline and surfactant-tolerant lipase from Trichoderma lentiforme ACCC30425 with high application potential in the detergent industry” (AMB Express, 2018).

Holding throughout (experiment): purified protein
What all share (assay type): biochemical, Trichoderma sp.
What all share (settings): pH 9.5, 50 °C, 10 min, Tris-HCl

Substrate in data set [1]: CCCC(=O)Oc1ccc([N+](=O)[O-])cc1
Substrate in data set [2]: CCCCCCCC(=O)Oc1ccc([N+](=O)[O-])cc1
Substrate in data set [3]: CCCCCCCCCC(=O)Oc1ccc([N+](=O)[O-])cc1
Substrate in data set [4]: CCCCCCCCCCCC(=O)Oc1ccc([N+](=O)[O-])cc1
Substrate in data set [5]: CCCCCCCCCCCCCC(=O)Oc1ccc([N+](=O)[O-])cc1
Substrate in data set [6]: CCCCCCCCCCCCCCCC(=O)Oc1ccc([N+](=O)[O-])cc1

One may read the Km as the concentration of substrate that gives half-maximal velocity. In general, Vmax refers to the top rate of the reaction or transport when substrate is in excess. One may read the kcat as the number of substrate molecules converted per active site and unit of time at saturation. Broadly, the kcat/Km is the second-order rate constant that governs catalysis at low substrate concentration.

B1: TlLipA (Trichoderma sp.) (protein)
chain: AQGQVNVTIPSGNIMGSSVEDVEFFKGIPFADPPIGELRFKPPQTLSTHLGDFDATKKAKLCSQGPVFTVSSNPQVAPFALKAERESFGNPVPPENESEDCLTVTIHRPAGTEAGDDLPVLFYIFGGGFVIGGTSAAINDPTVLVQTGIDLGKPFIFAAVNYRVGGWGFMPGAEILRDGSANAGLLDQRKGLEWVADNIAAFGGDPSKVTIWGQSSGSISVFEQLVLYDGDNTYNGNPLFRGAIMNSGSVTPVDPVDSAKPQALYDHVVRVANCEGDDSLDCLRRLPNDHFAAAANSIPGLISYESLALSYLPRPDGEVLTASPHVLAREGKFPAVPMILASQEDEGTLFSFFQGDMGTTDIITDYLNSLYFTNTDRSLVKSFVETYSERLEDGSPYRTGDSKDLFYYPGKKRIASILGDIVFTLVRRWTLETIAEVSPETALWSSFASYNYKPLDIFGLGTKHGSDTEVFFARNNSDFPSITGRTYYINFVYNGDPNEGLDVNVTWLGWKEDRQLLWYNATENGYLADNFRNGSYNFIKEHIDSLIF
notes: secreted from Pichia pastoris GS115 (pPIC9, alpha-factor signal), no tag told; N-terminus AQGQVNVTIP from primer
As for B1, the Km amounted to 400 ± 70 µM in the data set “purified protein [1]”; 670 ± 230 µM in the data set “purified protein [2]”; 350 ± 70 µM in the data set “purified protein [3]”; 1590 ± 420 µM in the data set “purified protein [4]”; 3290 ± 1210 µM in the data set “purified protein [5]”; 4220 ± 1280 µM in “purified protein [6]”. Further, the maximum rate (Vmax) in the data set “purified protein [1]” came to 12.2 µmol/min/mg; in “purified protein [2]”, 27.3 µmol/min/mg; in “purified protein [3]”, 12.5 µmol/min/mg; in “purified protein [4]” it was 16.8 µmol/min/mg; in “purified protein [5]”, 4.3 µmol/min/mg; in “purified protein [6]”, 4.8 µmol/min/mg. Moreover, the turnover number (kcat) in the data set “purified protein [1]” is 12.2 ± 0.8 s⁻¹; in “purified protein [2]”, 27.4 ± 4.4 s⁻¹; in “purified protein [3]” it was 12.5 ± 0.7 s⁻¹; in “purified protein [4]”, 16.8 ± 2.4 s⁻¹; in “purified protein [5]”, 4.3 ± 1 s⁻¹; in the data set “purified protein [6]”, 4.8 ± 1 s⁻¹. Moreover, the kcat/Km in the data set “purified protein [1]” stood at 30700 M⁻¹ s⁻¹; in the data set “purified protein [2]”, 41000 M⁻¹ s⁻¹; in “purified protein [3]” it was 35800 M⁻¹ s⁻¹; in the data set “purified protein [4]” it was 10600 M⁻¹ s⁻¹; in “purified protein [5]” it was 1320 M⁻¹ s⁻¹; in the data set “purified protein [6]”, 1140 M⁻¹ s⁻¹.
